Results as given in PMC5691159 (Nature Communications, 2017).

Key:
[1] = molecular target: PfRh5 (Plasmodium falciparum) (UniProt Q8IFM5); conditions: cited from earlier work
[2] = molecular target: recombinant Cyclophilin B (Sino Biological) (human); experiment: SPR; Biacore T200, 25 °C; CypB (200 RU) amine-coupled on CM5 chip; analyte injected at 30 µl/min; running buffer 50 mM HEPES, 150 mM NaCl, 5 mM MgCl2, pH 7.4; 1:1 (Langmuir) model
[3] = molecular target: PfRhopH3 on the P. falciparum merozoite surface (P. falciparum (endogenous in merozoites)) (UniProt Q8I395); experiment: immunostaining of cells or tissue; free merozoites incubated with 25 µM Cyclophilin B for 2 h at RT, with or without pre-incubation with rabbit anti-PfRhopH3 or anti-Rap2b antibody (1:25, 15 min); bound CypB stained and its fluorescence intensity measured by confocal microscopy (mean of ten merozoites)
Sequence of PfRhopH3 on the P. falciparum merozoite surface (P. falciparum (endogenous in merozoites)) (Q8I395 25-897): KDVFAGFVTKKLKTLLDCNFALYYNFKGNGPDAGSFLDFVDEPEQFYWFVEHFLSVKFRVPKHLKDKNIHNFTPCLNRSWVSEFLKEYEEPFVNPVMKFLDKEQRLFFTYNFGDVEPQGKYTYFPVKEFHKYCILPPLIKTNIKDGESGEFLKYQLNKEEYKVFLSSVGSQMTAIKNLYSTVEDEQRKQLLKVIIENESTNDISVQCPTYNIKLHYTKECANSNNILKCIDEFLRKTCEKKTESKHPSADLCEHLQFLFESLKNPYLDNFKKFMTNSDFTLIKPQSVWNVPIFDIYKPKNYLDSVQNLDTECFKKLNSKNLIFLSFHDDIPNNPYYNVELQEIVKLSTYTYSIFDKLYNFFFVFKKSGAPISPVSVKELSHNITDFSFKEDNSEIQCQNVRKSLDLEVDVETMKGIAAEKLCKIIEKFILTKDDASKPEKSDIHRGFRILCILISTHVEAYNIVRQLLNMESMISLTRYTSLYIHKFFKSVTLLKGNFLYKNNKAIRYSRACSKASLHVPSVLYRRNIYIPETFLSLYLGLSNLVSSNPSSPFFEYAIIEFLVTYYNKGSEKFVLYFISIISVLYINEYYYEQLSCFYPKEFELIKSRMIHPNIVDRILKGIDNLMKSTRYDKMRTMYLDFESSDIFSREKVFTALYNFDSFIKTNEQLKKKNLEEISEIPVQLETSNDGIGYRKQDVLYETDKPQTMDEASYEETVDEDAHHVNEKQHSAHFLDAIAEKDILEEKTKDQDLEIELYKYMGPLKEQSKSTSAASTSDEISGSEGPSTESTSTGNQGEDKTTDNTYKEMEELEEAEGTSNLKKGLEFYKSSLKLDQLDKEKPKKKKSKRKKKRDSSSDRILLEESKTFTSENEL

PfRh5 protein = molecular target: T1, PfRh5 protein (P. falciparum, UniProt Q8IFM5 25-526); experiment: SPR; Biacore T200, 25 °C; […]; running buffer 50 mM HEPES, 150 mM NaCl, 5 mM MgCl2, pH 7.4; 1:1 model; conditions: both partners purified
T1 sequence: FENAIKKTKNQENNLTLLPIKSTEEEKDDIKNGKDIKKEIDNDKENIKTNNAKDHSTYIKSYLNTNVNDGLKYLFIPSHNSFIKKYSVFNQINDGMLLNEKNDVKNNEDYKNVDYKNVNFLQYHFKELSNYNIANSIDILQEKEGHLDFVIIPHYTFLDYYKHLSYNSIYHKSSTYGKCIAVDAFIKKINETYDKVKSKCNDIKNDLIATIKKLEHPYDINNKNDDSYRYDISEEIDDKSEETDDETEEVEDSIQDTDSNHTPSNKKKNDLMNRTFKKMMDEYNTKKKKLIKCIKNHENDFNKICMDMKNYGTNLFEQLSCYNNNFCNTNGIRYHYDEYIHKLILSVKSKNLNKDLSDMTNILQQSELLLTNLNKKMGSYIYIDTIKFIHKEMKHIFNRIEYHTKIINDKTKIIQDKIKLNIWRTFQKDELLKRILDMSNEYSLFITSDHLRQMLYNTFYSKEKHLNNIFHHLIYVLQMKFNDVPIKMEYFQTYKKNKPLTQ

[4] = molecular target: recombinant Cyclophilin B (Sino Biological) (human); experiment: SPR; Biacore T200, 25 °C; […]; running buffer 50 mM HEPES, 150 mM NaCl, 5 mM MgCl2, pH 7.4; 1:1 (Langmuir) model

## Basigin (from UniProt P35613)
[1]
  Kd: 1120 nM

## recombinant Basigin (BSG/CD147, Sino Biological) (from UniProt P35613 138-325) (receptor)
[2]
  Kd: 430 nM

## recombinant Cyclophilin B (Sino Biological) (natural protein)
[3]
  reduction of binding to merozoites after treatment with anti-RhopH3-C antibody: > 50%

B1: recombinant PfRhopH3-C protein (aa 617–865) with C-terminal hexa-Histidine tag (domain or fragment)
chain: QLSCFYPKEFELIKSRMIHPNIVDRILKGIDNLMKSTRYDKMRTMYLDFESSDIFSREKVFTALYNFDSFIKTNEQLKKKNLEEISEIPVQLETSNDGIGYRKQDVLYETDKPQTMDEASYEETVDEDAHHVNEKQHSAHFLDAIAEKDILEEKTKDQDLEIELYKYMGPLKEQSKSTSAASTSDEISGSEGPSTESTSTGNQGEDKTTDNTYKEMEELEEAEGTSNLKKGLEFYKSSLKLDQLDKEKP
PfRh5 protein
  Kd: 18 nM
[4]
  Kd: 160 nM
